Reference: paper PMC1287507, “Ankyrin-B Coordinates the Na/K ATPase, Na/Ca Exchanger, and InsP3 Receptor in a Cardiac T-Tubule/SR Microdomain” (PLoS Biology, 2005)

B1: GST-ankyrin-B membrane-binding domain (domain or fragment)
chain: KSDSNASFLRAARAGNLDKVVEYLKGGIDINTCNQNGLNALHLAAKEGHVGLVQELLGRGSSVDSATKKGNTALHIASLAGQAEVVKVLVKEGANINAQSQNGFTPLYMAAQENHIDVVKYLLENGANQSTATEDGFTPLAVALQQGHNQAVAILLENDTKGKVRLPALHIAARKDDTKSAALLLQNDHNADVQSKMMVNRTTESGFTPLHIAAHYGNVNVATLLLNRGAAVDFTARNGITPLHVASKRGNTNMVKLLLDRGGQIDAKTRDGLTPLHCAARSGHDQVVELLLERGAPLLARTKNGLSPLHMAAQGDHVECVKHLLQHKAPVDDVTLDYLTALHVAAHCGHYRVTKLLLDKRANPNARALNGFTPLHIACKKNRIKVMELLVKYGASIQAITESGLTPIHVAAFMGHLNIVLLLLQNGASPDVTNIRGETALHMAARAGQVEVVRCLLRNGALVDARAREEQTPLHIASRLGKTEIVQLLLQHMAHPDAATTNGYTPLHISAREGQVDVASVLLEAGAAHSLATKKGFTPLHVAAKYGSLDVAKLLLQRRAAADSAGKNGLTPLHVAAHYDNQKVALLLLEKGASPHATAKNGYTPLHIAAKKNQMQIASTLLNYGAETNIVTKQGVTPLHLASQEGHTDMVTLLLDKGANIHMSTKSGLTSLHLAAQEDKVNVADILTKHGADQDAHTKLGYTPLIVACHYGNVKMVNFLLKQGANVNAKTKNGYTPLHQAAQQGHTHIINVLLQHGAKPNATTANGNTALAIAKRLGYISVVDTLKVVTEEVTTTTTTITEKHKLNVPETMTEVLDVSDEEGDDTMTGDGGEYLRPEDLKELGDD

Tests used:
[1] = target: 220-kDa ankyrin-B (endogenous, mouse) (mouse (endogenous in mouse heart and brain)); test: co-IP; detergent-soluble lysates of ankyrin-B+/- mouse heart, doubled amount of input lysate, compared with wild-type heart
[2] = target: InsP3R purified from bovine brain cerebellum (bovine, UniProt Q9TU34 1-2709, ^125I-labeled in the saturation binding; biotinylated with NHS-LC-biotin in the reconstitution); test: radioligand binding; saturation binding: increasing concentrations of ^125I-labeled protein with glutathione Sepharose-immobilized GST-ankyrin-B membrane-binding domain, 2 h at 25 °C; binding to GST beads subtracted; Scatchard analysis; conditions: both partners purified

Molecule	loss of co-immunoprecipitation in ankyrin-B+/- heart against wild-type heart [1] [%]	Kd [2] [nM]
Na/Ca exchanger 1 (endogenous, mouse) (from UniProt P70414 33-970) (natural protein)	> 60	–
Na/K ATPase (endogenous, mouse; isoform not told) (from UniProt Q8VDN2 1-1023) (natural protein)	> 60	–
inositol 1,4,5-trisphosphate receptor (endogenous, mouse) (from UniProt P11881 1-2749)	> 60	–
B1	–	3
